Source: patent US12391919B2, “Culture medium, coating matrix and method for maturing midbrain dopaminergic progenitor cells” (NUWACELL BIOTECHNOLOGIES CO., LTD., priority 2022, dated 2025)

System: imDAPs
Experiment: imDAP maturation: cell morphology, adhesion and cell yield
Format: cell-based, human
Conditions: Example 13; maturation media supplemented with 10 μM Y27632; day 7; FIG. 8A
Experimental: imDAPs were produced according to the method described in CN201910169525.0, and expanded as described in Example 10. […] MM-H used in Example 11 contained the following components: Neurobasal™ medium, 1% (v/v) Glutamax, 0.5 mM Db-cAMP sodium salt, 200 μM ascorbic acid, 20 ng/ml BDNF, 20 ng/ml GDNF, 1 ng/ml TGF-β3, 10 μM DAPT, HhPLT (0.5%, 1%, 2%). MM-B used in Example 11 contained the following components: Neurobasal, 1% (v/v) Glutamax, 0.5 mM Db-cAMP sodium salt, 200 μM ascorbic acid, 20 ng/ml BDNF, 20 ng/ml GDNF, 1 ng/ml TGF-β3, 10 μM DAPT, 2% (v/v) B27 (50×) (as control). The above HhPLT was produced from hPLT as follows. The hPLT was centrifuged at 3000 g for 30 min at 4° C. to obtain the supernatant, which was heated to 56° C. for 30 min. The suspension was finally cooled down to 4° C. at least 5 min, and spun at 3000 g for 30 min at 4° C. to obtain the HhPLT supernatant. Aliquots were prepared and stored at −80° C. until use. The above Medium was changed every 3rd day. On day 7, the imDAPs at early maturation stage were dissociated enzymatically with 1× TrypLE, centrifuged at 250 g for 5 minutes.
imDAPs were produced according to the method described in CN201910169525.0, and expanded as described in Example 10. […] Medium was changed every 3rd day. On day 7, the imDAPs at early maturation stage were dissociated enzymatically with 1× TrypLE, centrifuged at 250 g for 5 minutes. Cells were collected for RT-qPCR analysis of EN1, LMX1A, FOXA2, NURR1, SOX6 and TH gene expression. The maturation medium used in Example 12 contained the following components: Neurobasal™ medium, 1% (v/v) Glutamax, 1% (v/v) HhPLT, 0.5 mM Db-cAMP sodium salt, 200 μM ascorbic acid, 20 ng/mL BDNF, 20 ng/mL GDNF, 1 ng/mL TGF-β3, 10 μM DAPT.
imDAPs were produced according to the method described in CN201910169525.0, and expanded as described in Example 10. […] Cells were collected and counted by Vi-cell cytometer. The cells were analyzed by RT-qPCR for EN1, LMX1A, FOXA2, NURR1, SOX6 and TH gene expression. […]

B1: VTN: vitronectin, first coating matrix that supports cell adhesion (protein, UniProt P04004 20-478, looked up)
Vitronectin: DQESCKGRCTEGFNVDKKCQCDELCSYYQSCCTDYTAECKPQVTRGDVFTMPEDEYTVYDDGEEKNNATVHEQVGGPSLTSDLQAQSKGNPEQTPVLKPEEEAPAPEVGASKPEGIDSRPETLHPGRPQPPAEEELCSGKPFDAFTDLKNGSLFAFRGQYCYELDEKAVRPGYPKLIRDVWGIEGPIDAAFTRINCQGKTYLFKGSQYWRFEDGVLDPDYPRNISDGFDGIPDNVDAALALPAHSYSGRERVYFFKGKQYWEYQFQHQPSQEECEGSSLSAVFEHFAMMQRDSWEDIFELLFWGRTSAGTRQPQFISRDWHGVPGQVDAAMAGRIYISGMAPRPSLAKKQRFRHRNRKGYRSQRGHSRGRNQNSRRPSRATWLSLFSSEESNLGANNYDDYRMDWLVPATCEPIQSVFFFSGDKYYRVNLRTRRVDTVDPPYPRSIAQYWLGCPAPGHL
cell adhesion and growth: could grow normally
